Assays:
[1] = target: T1, pop-1 (W10C8.2) (Caenorhabditis elegans) (UniProt Q10666)
T1 sequence: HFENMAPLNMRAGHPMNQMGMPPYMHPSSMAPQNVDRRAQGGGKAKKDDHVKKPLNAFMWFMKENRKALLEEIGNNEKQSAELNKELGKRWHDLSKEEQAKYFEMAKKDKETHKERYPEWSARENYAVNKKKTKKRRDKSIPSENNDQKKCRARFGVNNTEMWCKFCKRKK

[2] = target: T2, hsf-1 (Y53C10A.12) (Caenorhabditis elegans) (UniProt G5EFT5)
T2 sequence: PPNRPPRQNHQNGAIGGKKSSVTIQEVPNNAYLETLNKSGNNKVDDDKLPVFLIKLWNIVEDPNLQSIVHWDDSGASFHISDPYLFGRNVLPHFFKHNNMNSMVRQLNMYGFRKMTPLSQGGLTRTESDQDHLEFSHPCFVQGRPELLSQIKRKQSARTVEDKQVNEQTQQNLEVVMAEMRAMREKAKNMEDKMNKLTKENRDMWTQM

[3] = target: T3, F10B5.3 (F10B5.3) (Caenorhabditis elegans) (UniProt Q09534)
T3 sequence: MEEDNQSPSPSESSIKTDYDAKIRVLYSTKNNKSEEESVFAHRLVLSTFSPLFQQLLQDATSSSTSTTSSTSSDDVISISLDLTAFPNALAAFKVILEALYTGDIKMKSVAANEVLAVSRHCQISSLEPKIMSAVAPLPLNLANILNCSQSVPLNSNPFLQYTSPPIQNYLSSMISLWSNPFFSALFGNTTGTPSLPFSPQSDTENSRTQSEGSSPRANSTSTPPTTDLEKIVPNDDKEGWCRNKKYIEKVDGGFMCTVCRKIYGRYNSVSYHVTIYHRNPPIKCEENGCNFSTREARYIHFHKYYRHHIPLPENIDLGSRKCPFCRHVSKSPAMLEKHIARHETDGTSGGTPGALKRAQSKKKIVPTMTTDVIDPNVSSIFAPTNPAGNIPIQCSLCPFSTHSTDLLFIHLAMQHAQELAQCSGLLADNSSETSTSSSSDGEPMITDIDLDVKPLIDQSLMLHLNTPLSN

[4] = target: atf-7 (C07G2.2) (Caenorhabditis elegans) (UniProt Q86MD3)
[5] = target: T4, zip-3 (W07G1.3) (Caenorhabditis elegans) (UniProt Q9XUK2)
T4 sequence: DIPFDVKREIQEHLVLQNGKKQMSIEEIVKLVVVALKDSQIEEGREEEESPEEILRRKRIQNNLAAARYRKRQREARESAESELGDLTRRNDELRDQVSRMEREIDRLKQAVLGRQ

[6] = target: T5, atf-5 (T04C10.4) (Caenorhabditis elegans) (UniProt Q22156)
T5 sequence: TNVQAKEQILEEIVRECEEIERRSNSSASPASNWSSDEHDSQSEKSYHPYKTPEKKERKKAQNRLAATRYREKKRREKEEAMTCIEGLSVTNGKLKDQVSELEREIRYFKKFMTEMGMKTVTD

[7] = target: T6, xbp-1 (R74.3) (Caenorhabditis elegans) (UniProt G5EE07)
T6 sequence: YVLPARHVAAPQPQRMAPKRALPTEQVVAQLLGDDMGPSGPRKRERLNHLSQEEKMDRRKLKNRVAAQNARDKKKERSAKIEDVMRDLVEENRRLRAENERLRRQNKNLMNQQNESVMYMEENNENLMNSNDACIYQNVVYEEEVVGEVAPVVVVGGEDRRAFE

[8] = target: T7, nhr-7 (F54D1.4) (Caenorhabditis elegans) (UniProt Q20765)
T7 sequence: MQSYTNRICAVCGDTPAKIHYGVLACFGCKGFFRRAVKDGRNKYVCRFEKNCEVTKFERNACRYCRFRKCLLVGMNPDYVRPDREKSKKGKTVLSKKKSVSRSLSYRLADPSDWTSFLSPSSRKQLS

[9] = target: nhr-34 (F58G6.5) (Caenorhabditis elegans) (UniProt Q21006)
[10] = target: T8, nhr-3 (H01A20.1) (Caenorhabditis elegans) (UniProt Q9XTJ4)
T8 sequence: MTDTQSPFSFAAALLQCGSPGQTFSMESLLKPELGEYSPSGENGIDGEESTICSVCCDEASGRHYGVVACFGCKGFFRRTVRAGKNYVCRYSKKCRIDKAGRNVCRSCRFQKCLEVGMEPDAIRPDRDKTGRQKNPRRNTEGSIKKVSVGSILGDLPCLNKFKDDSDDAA

[11] = target: T9, C46E10.8 (C46E10.8) (Caenorhabditis elegans) (UniProt O44719)
T9 sequence: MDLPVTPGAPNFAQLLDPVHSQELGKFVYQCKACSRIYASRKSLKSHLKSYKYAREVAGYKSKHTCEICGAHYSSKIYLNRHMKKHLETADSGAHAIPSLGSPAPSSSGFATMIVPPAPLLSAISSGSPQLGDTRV

[12] = target: T10, dmd-6 (F13G11.1) (Caenorhabditis elegans) (UniProt O62159)
T10 sequence: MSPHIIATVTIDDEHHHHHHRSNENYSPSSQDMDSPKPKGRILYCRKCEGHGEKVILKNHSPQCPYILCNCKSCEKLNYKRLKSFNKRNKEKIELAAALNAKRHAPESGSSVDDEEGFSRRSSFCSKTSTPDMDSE

[13] = target: T11, D1005.3 (D1005.3) (Caenorhabditis elegans) (UniProt Q18909)
T11 sequence: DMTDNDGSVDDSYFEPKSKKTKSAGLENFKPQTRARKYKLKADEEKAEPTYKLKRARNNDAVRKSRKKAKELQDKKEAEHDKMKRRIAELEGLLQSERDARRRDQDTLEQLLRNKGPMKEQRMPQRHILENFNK

[14] = target: T12, nhr-46 (C45E5.6) (Caenorhabditis elegans) (UniProt Q95QR2)
T12 sequence: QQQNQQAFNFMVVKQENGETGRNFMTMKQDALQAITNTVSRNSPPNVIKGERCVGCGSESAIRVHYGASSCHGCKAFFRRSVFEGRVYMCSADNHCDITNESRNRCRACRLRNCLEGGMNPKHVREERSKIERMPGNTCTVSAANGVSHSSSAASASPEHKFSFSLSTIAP

[15] = target: T13, W08E12.1 (W08E12.1) (Caenorhabditis elegans) (UniProt Q9N5A8)
T13 sequence: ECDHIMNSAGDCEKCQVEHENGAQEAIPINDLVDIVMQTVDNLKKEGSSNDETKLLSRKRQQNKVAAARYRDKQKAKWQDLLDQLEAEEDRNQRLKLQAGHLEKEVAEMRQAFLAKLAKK

[16] = target: T14, atf-6 (F45E6.2) (Caenorhabditis elegans) (UniProt Q20435)
T14 sequence: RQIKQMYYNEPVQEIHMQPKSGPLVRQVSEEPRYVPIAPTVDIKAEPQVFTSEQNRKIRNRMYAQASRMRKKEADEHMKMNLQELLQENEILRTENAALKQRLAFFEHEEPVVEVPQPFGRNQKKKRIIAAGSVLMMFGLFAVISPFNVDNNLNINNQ

[17] = target: T15, Y51H4A.4 (Y51H4A.4) (Caenorhabditis elegans) (UniProt Q9NAE4)
T15 sequence: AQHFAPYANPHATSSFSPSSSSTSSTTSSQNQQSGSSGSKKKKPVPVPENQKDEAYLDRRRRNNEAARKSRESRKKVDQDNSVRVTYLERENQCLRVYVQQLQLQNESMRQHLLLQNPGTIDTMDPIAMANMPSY

[18] = target: T16, nhr-1 (R09G11.2) (Caenorhabditis elegans) (UniProt Q21878)
T16 sequence: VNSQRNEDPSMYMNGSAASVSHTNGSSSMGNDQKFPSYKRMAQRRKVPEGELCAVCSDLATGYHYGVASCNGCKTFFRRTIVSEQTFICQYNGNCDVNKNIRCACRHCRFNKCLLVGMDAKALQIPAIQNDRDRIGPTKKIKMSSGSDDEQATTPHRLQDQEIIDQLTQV

[19] = target: T17, nhr-154 (C13C4.2) (Caenorhabditis elegans) (UniProt O01931)
T17 sequence: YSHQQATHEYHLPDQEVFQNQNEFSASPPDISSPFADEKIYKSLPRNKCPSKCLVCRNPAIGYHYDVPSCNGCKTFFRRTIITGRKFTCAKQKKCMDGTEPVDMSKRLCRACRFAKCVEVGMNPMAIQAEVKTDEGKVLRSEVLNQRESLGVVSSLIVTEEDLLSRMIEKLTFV

[20] = target: T18, efl-2 (Y48C3A.17) (Caenorhabditis elegans) (UniProt A5HWA8)
T18 sequence: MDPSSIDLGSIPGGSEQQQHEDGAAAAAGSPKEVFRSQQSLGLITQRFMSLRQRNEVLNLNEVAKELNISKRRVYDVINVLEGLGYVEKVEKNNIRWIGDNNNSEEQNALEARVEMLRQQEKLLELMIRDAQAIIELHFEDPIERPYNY

[21] = target: T19, ztf-27 (T09F3.1) (Caenorhabditis elegans) (UniProt G5EDA0)
T19 sequence: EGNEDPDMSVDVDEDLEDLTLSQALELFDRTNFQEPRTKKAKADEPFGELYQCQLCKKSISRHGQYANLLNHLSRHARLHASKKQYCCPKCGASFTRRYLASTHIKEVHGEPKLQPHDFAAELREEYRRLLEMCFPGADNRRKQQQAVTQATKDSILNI

[22] = target: T20, T27F2.4 (T27F2.4) (Caenorhabditis elegans) (UniProt Q22835)
T20 sequence: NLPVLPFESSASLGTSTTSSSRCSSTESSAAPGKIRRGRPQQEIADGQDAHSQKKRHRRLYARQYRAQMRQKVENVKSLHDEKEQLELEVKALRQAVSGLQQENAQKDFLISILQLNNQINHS

Chain of nhr-34 (F58G6.5) (Caenorhabditis elegans) (Q21006 99-268): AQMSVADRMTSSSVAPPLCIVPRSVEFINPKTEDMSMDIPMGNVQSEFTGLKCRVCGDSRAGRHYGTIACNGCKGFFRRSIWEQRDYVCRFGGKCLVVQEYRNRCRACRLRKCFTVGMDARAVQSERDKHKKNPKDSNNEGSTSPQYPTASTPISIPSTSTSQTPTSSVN
Chain of atf-7 (C07G2.2) (Caenorhabditis elegans) (Q86MD3 339-508): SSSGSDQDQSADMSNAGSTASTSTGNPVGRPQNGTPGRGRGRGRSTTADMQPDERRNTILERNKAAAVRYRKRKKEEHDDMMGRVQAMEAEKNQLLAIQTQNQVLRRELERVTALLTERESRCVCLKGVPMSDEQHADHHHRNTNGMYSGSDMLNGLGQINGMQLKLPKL

Sequence: CATCAAAG (double strand) [8-mer CATCAAAG]
- binding signal (PBM E-score (-0.5 to 0.5)) [1]: 0.463

Sequence: TTCTAGAA (double strand) [8-mer TTCTAGAA]
- binding signal (PBM E-score (-0.5 to 0.5)) [2]: 0.498
- binding signal (PBM E-score (-0.5 to 0.5)) [3]: 0.477

Sequence: ACGTCATC (double strand) [8-mer ACGTCATC]
- binding signal (PBM E-score (-0.5 to 0.5)) [4]: 0.499
- binding signal (PBM E-score (-0.5 to 0.5)) [5]: 0.493
- binding signal (PBM E-score (-0.5 to 0.5)) [6]: 0.49
- binding signal (PBM E-score (-0.5 to 0.5)) [7]: 0.471

Sequence: ATGACGTG (double strand) [8-mer ATGACGTG]
- binding signal (PBM E-score (-0.5 to 0.5)) [4]: 0.499
- binding signal (PBM E-score (-0.5 to 0.5)) [5]: 0.494
- binding signal (PBM E-score (-0.5 to 0.5)) [6]: 0.485
- binding signal (PBM E-score (-0.5 to 0.5)) [7]: 0.451

Sequence: TTCCAGAA (double strand) [8-mer TTCCAGAA]
- binding signal (PBM E-score (-0.5 to 0.5)) [2]: 0.489
- binding signal (PBM E-score (-0.5 to 0.5)) [3]: 0.491

Sequence: AAGACCAA (double strand) [8-mer AAGACCAA]
- binding signal (PBM E-score (-0.5 to 0.5)) [8]: 0.469
- binding signal (PBM E-score (-0.5 to 0.5)) [9]: 0.473
- binding signal (PBM E-score (-0.5 to 0.5)) [10]: 0.457

Sequence: AATTTATA (double strand) [8-mer AATTTATA]
- binding signal (PBM E-score (-0.5 to 0.5)) [11]: 0.457
- binding signal (PBM E-score (-0.5 to 0.5)) [12]: 0.471

Sequence: TTGCGAAA (double strand) [8-mer TTGCGAAA]
- binding signal (PBM E-score (-0.5 to 0.5)) [13]: 0.466

Sequence: AAGATCAA (double strand) [8-mer AAGATCAA]
- binding signal (PBM E-score (-0.5 to 0.5)) [8]: 0.455
- binding signal (PBM E-score (-0.5 to 0.5)) [14]: 0.496
- binding signal (PBM E-score (-0.5 to 0.5)) [9]: 0.494
- binding signal (PBM E-score (-0.5 to 0.5)) [10]: 0.486

Sequence: TAAATTTA (double strand) [8-mer TAAATTTA]
- binding signal (PBM E-score (-0.5 to 0.5)) [11]: 0.459

Sequence: AAAGACCA (double strand) [8-mer AAAGACCA]
- binding signal (PBM E-score (-0.5 to 0.5)) [8]: 0.472
- binding signal (PBM E-score (-0.5 to 0.5)) [10]: 0.459

Sequence: TGACGTAA (double strand) [8-mer TGACGTAA]
- binding signal (PBM E-score (-0.5 to 0.5)) [4]: 0.495
- binding signal (PBM E-score (-0.5 to 0.5)) [15]: 0.47
- binding signal (PBM E-score (-0.5 to 0.5)) [16]: 0.459
- binding signal (PBM E-score (-0.5 to 0.5)) [17]: 0.454
- binding signal (PBM E-score (-0.5 to 0.5)) [6]: 0.49

Sequence: AAAGATCA (double strand) [8-mer AAAGATCA]
- binding signal (PBM E-score (-0.5 to 0.5)) [8]: 0.476
- binding signal (PBM E-score (-0.5 to 0.5)) [14]: 0.49
- binding signal (PBM E-score (-0.5 to 0.5)) [18]: 0.472
- binding signal (PBM E-score (-0.5 to 0.5)) [9]: 0.485
- binding signal (PBM E-score (-0.5 to 0.5)) [10]: 0.488

Sequence: TGACGTCA (double strand) [8-mer TGACGTCA]
- binding signal (PBM E-score (-0.5 to 0.5)) [4]: 0.5
- binding signal (PBM E-score (-0.5 to 0.5)) [5]: 0.5
- binding signal (PBM E-score (-0.5 to 0.5)) [15]: 0.5
- binding signal (PBM E-score (-0.5 to 0.5)) [6]: 0.5

Sequence: TGGCGCCA (double strand) [8-mer TGGCGCCA]
- binding signal (PBM E-score (-0.5 to 0.5)) [19]: 0.474
- binding signal (PBM E-score (-0.5 to 0.5)) [20]: 0.492
- binding signal (PBM E-score (-0.5 to 0.5)) [21]: 0.491

Sequence: TTACGAAA (double strand) [8-mer TTACGAAA]
- binding signal (PBM E-score (-0.5 to 0.5)) [13]: 0.464
- binding signal (PBM E-score (-0.5 to 0.5)) [22]: 0.463

Sequence: GGCGCCAA (double strand) [8-mer GGCGCCAA]
- binding signal (PBM E-score (-0.5 to 0.5)) [19]: 0.46
- binding signal (PBM E-score (-0.5 to 0.5)) [20]: 0.488

Sequence: ATCAAAGA (double strand) [8-mer ATCAAAGA]
- binding signal (PBM E-score (-0.5 to 0.5)) [1]: 0.456

Sequence: AATTTATG (double strand) [8-mer AATTTATG]
- binding signal (PBM E-score (-0.5 to 0.5)) [11]: 0.465

Sequence: CTTTGATC (double strand) [8-mer CTTTGATC]
- binding signal (PBM E-score (-0.5 to 0.5)) [1]: 0.451

Sequence: ATAAATTA (double strand) [8-mer ATAAATTA]
- binding signal (PBM E-score (-0.5 to 0.5)) [11]: 0.451

Sequence: AGGCGCCA (double strand) [8-mer AGGCGCCA]
- binding signal (PBM E-score (-0.5 to 0.5)) [19]: 0.452

From PMC4434323
